According to the RNAGym collection of RNA variant scans (doi:10.7554/elife.90254):

B1: LINE1-full (parent)
chain: UACGUAGGUGGUUUUCCCCUGAUAGUGCUAAGGGGGCCUGGAAGUUUGGACUGGGCAGAGCUCAACACAGCGUGGCAAAGUGGCUGUGGCUAGACUGCCUCUCUGGAUUCCUCGUCACUCAGCAGGGCAUCUCUGAGAGAAAUGCC

Variants of: B1
Assay: self-cleavage, relative activity (ratio to wild type); higher = more cleavage; in vitro, sequencing; the parent is a self-cleaving ribozyme

Row | Variant | self-cleavage
1 | UACGUAGGUGGUUUUCCCCUGAUAGUGCUAAGGGGGCCUGGAAGUUUGGUCUGGGCAGAGCUCAACACAGCGUGGCAAAGUGGCUGUGGCUAGACUGCCUCUCUGGAUUCCACGUCACUCAGCAGGGCAUCUCUGAGAGAAAUGCC [A50U U112A] | 1.15
2 | UACGUAGGUGGUCUUCCCCUGAUAGUGCUAAGGGGGCCUGGAAGUUUGGACUGGGCAGAGCUCAACACAGCGUGGCAAAGUGGCCGUGGCUAGACUGCCUCUCUGGAUUCCUCGUCACUCAGCAGGGCAUCUCUGAGAGAAAUGCC [U13C U85C] | 0.18
3 | UACGUAGGUGGUUUUCCCCUGAUAGUGCUAAGGGGGCCUGGAAGCUUGGACUGGGCAGAGCUCAACACAGCGUGGCAAAGUGGCUGUGGCUAGACUGCCUCUCUGGAUUCCUCGCCACUCAGCAGGGCAUCUCUGAGAGAAAUGCC [U45C U115C] | 2.14
4 | UACGUAGAUGGUUUUCCCCUGAUAGUGCUAAGGGGGCCUGGAAGUUUGGACUGGGCUGAGCUCAACACAGCGUGGCAAAGUGGCUGUGGCUAGACUGCCUCUCUGGAUUCCUCGUCACUCAGCAGGGCAUCUCUGAGAGAAAUGCC [G8A A57U] | 0.16
5 | UACGUAGGUGGUUUUCCCCUGAUAGUGCUAAGGGGGCCUGGACGGUUGGACUGGGCAGAGCUCAACACAGCGUGGCAAAGUGGCUGUGGCUAGACUGCCUCUCUGGAUUCCUCGUCACUCAGCAGGGCAUCUCUGAGAGAAAUGCC [A43C U45G] | 0.66
6 | UACGUAGGUGGUUUUCCCCUGAUAGUGCUAAGGGGGCCUGGAAGUUUGGACUGGGCAGAGCUCAACACAGCGUGGCAAAAUGGCUGUUGCUAGACUGCCUCUCUGGAUUCCUCGUCACUCAGCAGGGCAUCUCUGAGAGAAAUGCC [G80A G88U] | 0.15
7 | UACGUAGGUGGUUUUCCUCUGAUAGUGCUAAGGGGGCCUGGAAGUUUGGACUGGGCAGAGCUCAACACAGCGUGGCAAAGUGGCUGUGGCUAGACUGCCUCUCUGGACUCCUCGUCACUCAGCAGGGCAUCUCUGAGAGAAAUGCC [C18U U108C] | 0
8 | UACGUAGGUGGUUCUCCCCUGAUAGUGCUAAGGGGGCCUGGAAGUUUGGACUGGGCAGAGCUCAACACAGCGUGGCAAAGUGGCUGUGGCUAGACCGCCUCUCUGGAUUCCUCGUCACUCAGCAGGGCAUCUCUGAGAGAAAUGCC [U14C U96C] | 0.18
9 | UACGUAGGUGGUUUUCCCCUGAUAGUGAUAAGGGGGCCUGGAAGUUUGGACUGGGCAGAGCUCAACACAGCGUGGCAAAGUGGCUGUGGCUAGACUGCCUCUCUGGACUCCUCGUCACUCAGCAGGGCAUCUCUGAGAGAAAUGCC [C28A U108C] | 1.82
10 | UACGUAGGUGGUUUUCCCCUGAUAGUGCUAAGGGGGCCUGGAUGUUUGGACUGGGCAGAGCUCAACACAGCGUGGCAAAGUGGCUGUGGCUAGACUGCCUCUCUGGAUUCCUCGACACUCAGCAGGGCAUCUCUGAGAGAAAUGCC [A43U U115A] | 1.6
11 | UACGUAGGUGGUUUUCCCCUGAUAGUGCUAAGGGGGCCUGGAAGUUAGGACUGGGCAGAGCUCAACACAGCGUGGCAAAGUGGCUGUGGCUAGACUGCCUCUCUGGAUUCCUCGUCACUCAGCAGGGCGUCUCUGAGAGAAAUGCC [U47A A129G] | 1.43
12 | UACGUAGGUGGUUUUUCCCUGAUAGUGCUAAGGGGGCCUGGAAGUUUGGACUGGGCAGAGCUCAACACAGCGUGGCAAAGUGGCUGUGGCUAGACCGCCUCUCUGGAUUCCUCGUCACUCAGCAGGGCAUCUCUGAGAGAAAUGCC [C16U U96C] | 0.11
13 | UGCGUAGGUGGUUUUCCCCUGAUAGUGUUAAGGGGGCCUGGAAGUUUGGACUGGGCAGAGCUCAACACAGCGUGGCAAAGUGGCUGUGGCUAGACUGCCUCUCUGGAUUCCUCGUCACUCAGCAGGGCAUCUCUGAGAGAAAUGCC [A2G C28U] | 0.72
14 | UACGUAGGUGGUUUUCCCCUGAUAGUGCUAAGGGGGCCUGGAAGUUUGGACUGGGCAGAGCUCAGCACAGCGUGGCAAAGUGGCUGUGGGUAGACUGCCUCUCUGGAUUCCUCGUCACUCAGCAGGGCAUCUCUGAGAGAAAUGCC [A65G C90G] | 0.09
15 | UACGUAGGUGGUUUUCCCCUGAUAGUGCUAAGGGGGCCUGGAAGUUUGGACUUGGCCGAGCUCAACACAGCGUGGCAAAGUGGCUGUGGCUAGACUGCCUCUCUGGAUUCCUCGUCACUCAGCAGGGCAUCUCUGAGAGAAAUGCC [G53U A57C] | 0.01
16 | UACGUAGGUGGUUUUCCCCUGAUAGUGCUAAGGGGGCCUGGAAGUUUGGACUGGGCAGAGCUCAACACAGCGUGGCAAAGUGGCUGUGGCUAGACUGCCUCUCUGGAUUUCUCGUCACUCAACAGGGCAUCUCUGAGAGAAAUGCC [C110U G122A] | 1.09
17 | UACGUAGGAGGUUUUCCCCUGAUAGUGCUAAGGGGGCCUGGAAGUUUGGGCUGGGCAGAGCUCAACACAGCGUGGCAAAGUGGCUGUGGCUAGACUGCCUCUCUGGAUUCCUCGUCACUCAGCAGGGCAUCUCUGAGAGAAAUGCC [U9A A50G] | 1.03
18 | UACGUAGGUGGUUUUCCCCUGAUAGUGCUAAGGGGGCCUGGAAGUUUGGACUGGGCAGAGCUCAACACAGCGUGGCAAAGUGGCUGUGGCUAGACAGCCUCUCUGGAUUCCUCGUCACUCAGCAGGGCAUCUCUGAGAGAAGUGCC [U96A A142G] | 0.08
19 | UACGUAGGUGGUUUUCCCCUGAUAGUGCUAAGGGGGCCUGGAAGUUUGGACUGGGCAGAGCUCAACACAGCGUGGCAAAGUGGCUGUGGCUAGACUGCCUCUCUGGAUUCCUCGUCACUCAGCAGGGCAUCACUGAGAGAUAUGCC [U132A A141U] | 0.14
20 | UACGUAGGUGGUUUUCCCCUGAUAGUGCUAUGGGGGCCUGGAAGUUUGGACUGGGCAGAGCUCAACACAGCGUGGCAUAGUGGCUGUGGCUAGACUGCCUCUCUGGAUUCCUCGUCACUCAGCAGGGCAUCUCUGAGAGAAAUGCC [A31U A78U] | 1.57

Row | Variant | self-cleavage
21 | UACGUAGGUGGGUUUCCCCUGAUAGUGCUAAGGGGGCCUGGAAGUUUGGACUGGGCAGAGCUCAACACAGCGUGGCAAUGUGGCUGUGGCUAGACUGCCUCUCUGGAUUCCUCGUCACUCAGCAGGGCAUCUCUGAGAGAAAUGCC [U12G A79U] | 1.3
22 | UACGUAGGUGGUUUUCCCCCGAUAGUGCUAAGGGGGCCUGGAAGUUUGGACUGGACAGAGCUCAACACAGCGUGGCAAAGUGGCUGUGGCUAGACUGCCUCUCUGGAUUCCUCGUCACUCAGCAGGGCAUCUCUGAGAGAAAUGCC [U20C G55A] | 0.25
23 | UACGUAGGUGGUUUUCCCCUGAUAGUGCUAAGGGGGCCAGGAAGUUUGGACUGGGCAGAGCUCAACACAGCGUGGCAAAGUGGCUGUGGCUAGACGGCCUCUCUGGAUUCCUCGUCACUCAGCAGGGCAUCUCUGAGAGAAAUGCC [U39A U96G] | 0.14
24 | UACGUAGGUGGUUUUCCCCUGAUAGUGCUAAGGGGGCCUGGAAGUUUGGACUGGGCAGAGCUCAACACAGCGUGGCAAAGUGGCUGUGGCUAGACCGCCUCUCUGGAUUCCUCGUCACUCAGCAGGGCAUCUCUGAGAGGAAUGCC [U96C A140G] | 0.09
25 | UACGUAGGUGGUUUUCCCCUGAUAGUGCUAAGGGGGCCUGGAAGUUUGGACUGGGCAGAGCUCAACACAGCGUGGCAAAGUGGUUGUGGCUAGACUGCCUCCCUGGAUUCCUCGUCACUCAGCAGGGCAUCUCUGAGAGAAAUGCC [C84U U102C] | 0.16
26 | UACGUAGGUGGUUUUCCCCUGAUAAUGCUAAGGGGGCCUGGAAGUUUGGACUGGGCAGAGCUCAACACAGCGUGGCAAAGUGGCUGUGGCUAGACUGCCUCUCUGGACUCCUCGUCACUCAGCAGGGCAUCUCUGAGAGAAAUGCC [G25A U108C] | 1.24
27 | UACGUAGGUGGUCUUCCCCUGAUAGUGCUAAGGGGGCCUGGAAGUUUGGACUGGGCAGAGCUCAACACAGCGUGGCAAAGUGGCUGUGGCUAGACUGCCUCUCUGGAUUCCUCGUCACUCAGAAGGGCAUCUCUGAGAGAAAUGCC [U13C C123A] | 1.42
28 | UACGUAGGUGGUUUUCCCCUGAUAGUGCUAAGGGGGCCUGGAAGUCUGGACUGGGUAGAGCUCAACACAGCGUGGCAAAGUGGCUGUGGCUAGACUGCCUCUCUGGAUUCCUCGUCACUCAGCAGGGCAUCUCUGAGAGAAAUGCC [U46C C56U] | 0.5
29 | UACGUAGGCGGUUUUCCCCUGAUAGUGCUAAGGGGGCCUGGAAGUUUGGACUGGGCAGAGCUCAACACAGCGUGGCAAAGUGGCUGUGGCUAGACUGCCACUCUGGAUUCCUCGUCACUCAGCAGGGCAUCUCUGAGAGAAAUGCC [U9C U100A] | 1.41
30 | UACGUAGGUGGUUUUCCCCUGAUAGUGCUAAGGGGGCCUGGAAGUUUGGACUGGGCAGAGCUCAACACAGCGUGGCAUAGUGGAUGUGGCUAGACUGCCUCUCUGGAUUCCUCGUCACUCAGCAGGGCAUCUCUGAGAGAAAUGCC [A78U C84A] | 0.18
31 | UACGUAGGUGGUUUUCCCCUGAUAGUGCUAAGGGGGCCUGGAAGAUUGGACUGGGCAGAGCUCAACACAGCGUGGCAAAGUGGCUGUGGCUAGACUGCCUCUCUGGAUUCCUCGUCACUCGGCAGGGCAUCUCUGAGAGAAAUGCC [U45A A121G] | 1.88
32 | UACGUAGGUGGUUUACCCCUGAUAGUGCUAAGGGGGCCUGGAAGUUGGGACUGGGCAGAGCUCAACACAGCGUGGCAAAGUGGCUGUGGCUAGACUGCCUCUCUGGAUUCCUCGUCACUCAGCAGGGCAUCUCUGAGAGAAAUGCC [U15A U47G] | 0
33 | UACGUAGGUGGUUUUCCCCUGAUAGUGCUAAGGGGCCCUGGAAGUUAGGACUGGGCAGAGCUCAACACAGCGUGGCAAAGUGGCUGUGGCUAGACUGCCUCUCUGGAUUCCUCGUCACUCAGCAGGGCAUCUCUGAGAGAAAUGCC [G36C U47A] | 0.89
34 | UACGUAGGUGGUUUUCCCCUGAUAGUGCUAAGGGGGCCUGGAAGGUUGGACUGGGCAGAGCUCAACACAGCGUGGCAAAGAGGCUGUGGCUAGACUGCCUCUCUGGAUUCCUCGUCACUCAGCAGGGCAUCUCUGAGAGAAAUGCC [U45G U81A] | 1.82
35 | UACGUAGGUGGUUUUCCCCUGAUAGUGCUAAGGGGGCCUGGAAGUUUGGACUGGGCAGAGCUCAACACAGCGUGGCAAAGUGGCUGUGGCUAGACUGCCUCUCUGGAUUCCUCGUCACUUAGCAGGGCAUCUCUGAGAGAUAUGCC [C120U A141U] | 0.95
36 | UACGUAGGUGGUUUUCCCCUGAUAGUGCUAAGGGGGCCUGGAAGUUUGGACUGGGCAGAGUUCAACACAGCGUGGCAAAGUGGCUGUGGCUAGACUGCCUCUCUGGAUUCCUCGUCACUCAGCAGGGCAUCUCUGAGAGAAAUGCC [C61U] | 0.04
37 | CACGUAGGUGGUUUUCCCCUGAUAGUGCUAAGGGGGCCUGGAAGUUUGGACUGGGCAGAGCUCAACACAGCGUGGCAAAGUGGCUGUGGCUAGACUGCCUCUCUGGAUUCCUCGUCACUCAGCAGGGCAUCUCUGUGAGAAAUGCC [U1C A136U] | 1.15
38 | UACGUAGGUGGUUUUCCCCUGAUAGUGCUAAGGGGGCCUGGAAGUUUGGACUGGGCAGAGCUCAACACAGCGUGGCAAAGUGGCUGUGGCUAGACUGCCUCUCUGGAUUCCUCAUCACUCAGCAGGGCAUCUCUGGGAGAAAUGCC [G114A A136G] | 1.28
39 | UACGUAGGUGGUUUUCCCCUGAUAGUGCUAAGGGGGCCUGGAAGUUCGGACUGGGCAGAGCUCAACACAGCGUGGCAAAGUGGCUGUGGCUAGACUGCCUCUCUGGAUUCCUCGUCACUCAGCAGGGCAUUUCUGAGAGAAAUGCC [U47C C131U] | 1.91
